B1: RPAIN (parent)
chain: ISEYEKSLQFDEKCLSIMLAEWEA

Here are results for 94 variants from the supplement of paper PMC10567573.
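Note: lentivirally expressed fusions sorted by FACS into six bins by GFP to DsRed ratio, PSI derived from sequencing read proportions per bin multiplied by bin number.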

In this data set the parent is B1. The experiment in a line: protein stability index of a GFP-peptide fusion (GPS, HEK-293T) (PSI 1-6); higher = more stable. The settings on record: c terminus: a fixed tail appended.
As for ISEYEKSPQFDEKCLSIMLAEWEA, the protein stability index turned out to be 2.97.
As to ISEYEKSTQFDEKCLSIMLAEWEA, the protein stability index is 3.08.
The same measure for ISEYEKSRQFDEKCLSIMLAEWEA: 2.38; for ISEYEKSAQFDEKCLSIMLAEWEA: 2.63.
Turning to ISEYEKSGQFDEKCLSIMLAEWEA, the protein stability index is 3.44.
The value for ISEYEKSNQFDEKCLSIMLAEWEA was 2.71.
The value for ISEYEKSQQFDEKCLSIMLAEWEA was 3.1; that for ISEYEKSSQFDEKCLSIMLAEWEA was 2.68; that for ISEYEKSHQFDEKCLSIMLAEWEA was 2.65.
The value for ISEYEKSMQFDEKCLSIMLAEWEA was 2.29; that for ISEYEKSCQFDEKCLSIMLAEWEA was 1.96.
With ISEYEKSDQFDEKCLSIMLAEWEA, the protein stability index turned out to be 3.69.
Consider ISEYEKSWQFDEKCLSIMLAEWEA, for which the protein stability index was found to be 2.9.
Regarding ISEYEKSEQFDEKCLSIMLAEWEA, the protein stability index was determined as 3.45.
The same measure for ISEYEKSIQFDEKCLSIMLAEWEA: 2.79; for ISEYEKSLQFDEECLSIMLAEWEA: 1.71.
The value for ISEYEKSLQFDEHCLSIMLAEWEA was 1.73.
As to ISEYEKSLQFDEMCLSIMLAEWEA, the protein stability index stood at 1.34.
The same measure for ISEYEKSLQFDEFCLSIMLAEWEA: 1.91; for ISEYEKSLQFDEVCLSIMLAEWEA: 1.7.
Take ISEYEKSLQFDEYCLSIMLAEWEA: the protein stability index came to 3.37.
The value for ISEYEKSLQFDEGCLSIMLAEWEA was 1.8; that for ISEYEKSLQFDETCLSIMLAEWEA was 1.44; that for ISEYEKSLQFDEPCLSIMLAEWEA was 2.72.
The value for ISEYEKSLQFDESCLSIMLAEWEA was 2.25; that for ISEYEKSLQFDEDCLSIMLAEWEA was 1.76.
The same measure for ISEYEKSLQFDEQCLSIMLAEWEA: 1.47; for ISEYEKSLQFDEACLSIMLAEWEA: 2.1.
With ISEYEKSLQFDENCLSIMLAEWEA, the protein stability index was determined as 1.19.
As to ISEYEKSLQFDERCLSIMLAEWEA, the protein stability index was determined as 2.05.
Regarding ISEYNKSLQFDEKCLSIMLAEWEA, the protein stability index was found to be 1.51.
The same measure for ISEYSKSLQFDEKCLSIMLAEWEA: 1.82.
For ISEYTKSLQFDEKCLSIMLAEWEA, the protein stability index was 1.58.
As for ISEYVKSLQFDEKCLSIMLAEWEA, the protein stability index worked out at 2.51.
The value for ISEYWKSLQFDEKCLSIMLAEWEA was 1.23; that for ISEYYKSLQFDEKCLSIMLAEWEA was 2.3.
ISEYQKSLQFDEKCLSIMLAEWEA: the protein stability index came out at 1.92.
The value for ISEYRKSLQFDEKCLSIMLAEWEA was 1.32.
The same measure for ISEYPKSLQFDEKCLSIMLAEWEA: 2.33.
With ISEYEKSLQFPEKCLSIMLAEWEA, the protein stability index turned out to be 1.99.
As for ISEYEKSLQFLEKCLSIMLAEWEA, the protein stability index came out at 3.63.
For the variant ISEYEKSLQFTEKCLSIMLAEWEA, the protein stability index stood at 1.87.
The same measure for ISEYEKSLQFSEKCLSIMLAEWEA: 2.29; for ISEYEKSLQFREKCLSIMLAEWEA: 1.77; for ISEYEKSLQFKEKCLSIMLAEWEA: 1.95.
The same measure for ISEYEKSLQFGEKCLSIMLAEWEA: 2.15.
As for ISEYEKSLQFNEKCLSIMLAEWEA, the protein stability index was 2.45.
The same measure for ISEYEKSLQFAEKCLSIMLAEWEA: 2.17; for ISEYEKSLQFHEKCLSIMLAEWEA: 1.68; for ISEYEKSLQFDEKCLIIMLAEWEA: 2.84.
Consider ISEYEKSLQFDEKCLKIMLAEWEA, for which the protein stability index amounted to 2.17.
The value for ISEYEKSLQFDEKCLNIMLAEWEA was 1.37.
The same measure for ISEYEKSLQFDEKCLPIMLAEWEA: 2.85.
As for ISEYEKSLQFDEKCLGIMLAEWEA, the protein stability index was 2.34.
Turning to ISEYEKSLQFDEKCLHIMLAEWEA, the protein stability index was found to be 2.56.
The value for ISEYEKSLQFDEKCLMIMLAEWEA was 1.49; that for ISEYEKSLQFDEKCLCIMLAEWEA was 1.91.
The value for ISEYEKSLQFDEKCLEIMLAEWEA was 1.96; that for ISEYEKSLQFDEKCLDIMLAEWEA was 2.08.
Turning to ISEYEKSLQFDEKCLLIMLAEWEA, the protein stability index stood at 2.1.
Regarding ISEYEKSLQFDEKCLAIMLAEWEA, the protein stability index amounted to 2.32.
The same measure for ISEYEKSLQFDEKCLFIMLAEWEA: 2.09.
As for ISEYEKSLRFDEKCLSIMLAEWEA, the protein stability index was found to be 2.08.
Take ISEYEKSLEFDEKCLSIMLAEWEA: the protein stability index stood at 1.78.
For the variant ISEYEKSLYFDEKCLSIMLAEWEA, the protein stability index worked out at 1.58.
In the case of ISEYEKSLVFDEKCLSIMLAEWEA, the protein stability index worked out at 1.25.
The value for ISEYEKSLFFDEKCLSIMLAEWEA was 2.88; that for ISEYEKSLIFDEKCLSIMLAEWEA was 1.96; that for ISEYEKSLLFDEKCLSIMLAEWEA was 1.46.
The value for ISEYEKSLDFDEKCLSIMLAEWEA was 2.02; that for ISEYEKSLMFDEKCLSIMLAEWEA was 2.03.
The value for ISEYEKSLHFDEKCLSIMLAEWEA was 1.85; that for ISEYEKSLPFDEKCLSIMLAEWEA was 1.95.
ISEYEKSLTFDEKCLSIMLAEWEA: the protein stability index turned out to be 1.86.
For the variant ISEYEKSLAFDEKCLSIMLAEWEA, the protein stability index stood at 1.76.
With ISEYEKSLKFDEKCLSIMLAEWEA, the protein stability index stood at 2.23.
With ISEYEKSLCFDEKCLSIMLAEWEA, the protein stability index is 1.64.
The value for ISEYEKSLSFDEKCLSIMLAEWEA was 1.7; that for ISEYEKSLNFDEKCLSIMLAEWEA was 2.32.
The value for ISEYETSLQFDEKCLSIMLAEWEA was 1.92; that for ISEYEDSLQFDEKCLSIMLAEWEA was 2.07.
As for ISEYEASLQFDEKCLSIMLAEWEA, the protein stability index worked out at 2.2.
The value for ISEYEGSLQFDEKCLSIMLAEWEA was 1.15.
The value for ISEYEHSLQFDEKCLSIMLAEWEA was 1.97; that for ISEYELSLQFDEKCLSIMLAEWEA was 1.2; that for ISEYEWSLQFDEKCLSIMLAEWEA was 1.79.
The value for ISEYEQSLQFDEKCLSIMLAEWEA was 2.06; that for ISEYEMSLQFDEKCLSIMLAEWEA was 1.73; that for ISEYEESLQFDEKCLSIMLAEWEA was 1.78.
Take ISEYENSLQFDEKCLSIMLAEWEA: the protein stability index is 1.91.
Regarding ISEYEVSLQFDEKCLSIMLAEWEA, the protein stability index turned out to be 1.16.
ISEYERSLQFDEKCLSIMLAEWEA: the protein stability index stood at 2.39.
The value for ISEYECSLQFDEKCLSIMLAEWEA was 2.67; that for ISEYESSLQFDEKCLSIMLAEWEA was 1.34.
